Assay results published in PMC5485859.

Assays:
Details in all cases: reference: WT HSP90α, after IR; sites T5,T7
[1] = target: endothelial nitric oxide synthase (eNOS) (UniProt P70313); test: co-immunoprecipitation
[2] = target: androgen receptor (AR) (UniProt P19091); test: co-immunoprecipitation
[3] = target: glucocorticoid receptor (GR) (UniProt P06537); test: anti-GR IP, anti-Flag blot
[4] = target: liver kinase B1 (LKB1) (UniProt Q9WTK7); test: anti-LKB1 IP, anti-Flag blot

Measured: binding against the reference

HSP90α (from UniProt P07901) T5,7A HSP90α, after IR
stronger: all assays above
